The nature of this data set: amyloid nucleation score (Sup35N fusion, yeast selection) (log enrichment); library NNK1; higher = more nucleation; inactive = no reads after selection. In short, it runs like this: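 Output and input plasmid inserts were sequenced by Illumina after psi-negative yeast carrying Sup35N fused to peptides of 20 random codons had been induced 24 hours with 100 μM copper sulfate and grown 7 days at 30°C on medium lacking adenine and uracil. The nucleation score is the DiMSum log enrichment of output over input reads, centred on the mode score of non-aggregating sequences. Sequences with under 100 input reads were excluded.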

± gives the uncertainty stated by the source.

With IQYDSFNVRFDIATAIDYFA, the amyloid nucleation score was -0.12 ± 0.67. The result for NYYFAKSLLHI reads 1.27 ± 0.79. In turn, MLSTTLALLTERSFGAY registered an amyloid nucleation score of 0.021 ± 0.39. On to RLLWRWWRAVDVRGHDRLNL, for which the amyloid nucleation score was -0.306 ± 1.2. In turn, TSINWFRTVLYGVSLNYFWV gave an amyloid nucleation score of 0.345 ± 0.6. For the substance NLTRSVHVMRQVIVQHFIGN, the amyloid nucleation score was 0.424 ± 0.72. For ISLTDRVSGNRAVYHCSYAS, the amyloid nucleation score is -1.01 ± 1.4. Regarding CSTQRVPGGGLGKSWL, the amyloid nucleation score was found to be 0.18 ± 1.2. CNNSSGRVVRLCSMDGGLLG showed an amyloid nucleation score of -0.021 ± 0.65. In the case of FESRRVKNGID, the amyloid nucleation score entry is “inactive”.

In turn, NTYGAGSLGITWQQVCLTYE showed an amyloid nucleation score of 0.767 ± 0.62. The substance QISSTRIDW gave an amyloid nucleation score of -0.074 ± 0.32. Substance CGRVDEFKALLYKILRDYNW yielded an amyloid nucleation score of -0.141 ± 0.23. Substance SSCSYLGRDRMCFWPYFLTT yielded an amyloid nucleation score of 0.016 ± 0.39. Take CLCVGDDGGADWNKVRVITS: the amyloid nucleation score was 0.18 ± 0.61. The result for MTSLDFNYGISKLESSFYMY reads -0.739 ± 0.29; that for HFKRWLVNLFLTEFEKSYGV, -1.28 ± 0.62; that for ELLMERMRQLVFPPIIYRLN, 0.44 ± 0.62. To IISVMTIARGNPVCTHIKYG belongs 0.169 ± 0.29; to TDLNLVMKKGSYVGCSSSCV, -0.605 ± 0.24. As for SLLCLCYV, the amyloid nucleation score amounted to 7.599 ± 0.059. Consider DSSVLRMQRVDRTRAFTYHW, for which the amyloid nucleation score is -0.68 ± 0.56. The substance LTEDPGIRSSQR gave an amyloid nucleation score of 0.055 ± 1. The substance SLGGVGRTTHNILCEADSGA registered an amyloid nucleation score of 1.44 ± 0.38. Take CLFSRELTLSPLWDLVK: the amyloid nucleation score amounted to 1.79 ± 0.15. Substance SMLAFQMITKQRQHSFWMWT gave an amyloid nucleation score of -0.766 ± 0.39. In the case of SCKRSA, the amyloid nucleation score came to 0.578 ± 0.4. The result for VGFNKL reads 0.013 ± 0.6; that for DCDGVLSLCIMVHEIYRKVG, “inactive”. For the substance SCKVVILLPSVVKACLTVLP, the amyloid nucleation score was determined as 0.474 ± 0.95. In turn, QTSIWFGDYYRKLSLCWHRP yielded an amyloid nucleation score of 3.63 ± 0.097.

TITHGYLRLRYCVR gave an amyloid nucleation score of -0.292 ± 0.44. For the substance RATQLF, the amyloid nucleation score worked out at 1.81 ± 0.67. Regarding CVFRSYQWWSSHLYFVNVCN, the amyloid nucleation score came to 0.667 ± 0.68. In the case of GLVRDTTTMNVSLSVMSSAR, the amyloid nucleation score was determined as 1.39 ± 0.84. For TLWVNIG, the amyloid nucleation score is -1.44 ± 2.7. KSLQRWRDRCRDHVLSAS: the amyloid nucleation score is -0.083 ± 1. MRNIVWCCSVVLCCLFGVLF: the amyloid nucleation score amounted to 0.385 ± 0.69. The result for KGNYFRVTVYSAGFIQLLMS reads 6.393 ± 0.049.

In the case of SQKEFRKTAIKTHLMFRIHL, the amyloid nucleation score was -0.258 ± 0.29.

Take VLLVGVSDESRSRSPQGMSP: the amyloid nucleation score amounted to 0.243 ± 0.84. FGYNFRPHHCGCTRNLNSQM: the amyloid nucleation score amounted to 0.115 ± 0.29. On to GELCMLSVW, for which the amyloid nucleation score amounted to 0.729 ± 0.79. Turning to WIILVHGGGKRLSVNIHLLC, the amyloid nucleation score is -0.713 ± 0.32.

In the case of CGGFGMIFYL, the amyloid nucleation score is 3.03 ± 0.11.

With LLLRSRSTRF, the amyloid nucleation score was -0.233 ± 0.3. In turn, SHTADFRVLLRLIQYERGLR displayed an amyloid nucleation score of 3.44 ± 0.18.

In turn, VRYMSLWGIVSRVCGIRMER gave an amyloid nucleation score of 1.23 ± 0.56. As to VFYDVGGVSD, the amyloid nucleation score came out at 0.03 ± 0.48. With IGARQLSFLHSIRTREMRVQ, the amyloid nucleation score result is “inactive”. To GSNTFI belongs 0.243 ± 0.31. In turn, DGRVKAKVMMVRNGSLRNVL registered an amyloid nucleation score of 0.002 ± 0.4. SYWKNTVSCYVFFGMSRSRT displayed an amyloid nucleation score of -0.634 ± 1.4. On to LFNGLYHLVMRVMWRRLV, for which the amyloid nucleation score is -0.061 ± 1.2. In turn, VQRELFLVLHHTSVGRGSAP registered an amyloid nucleation score of 1.08 ± 0.24. To ILADIVDATWNFKSSISFLG belongs 1.74 ± 0.16.

CCRGCPERLLSWGGSPRATE had an amyloid nucleation score of -0.334 ± 0.39.

In the case of STLPMHRNMTLRRLSCVQSY, the amyloid nucleation score was -0.069 ± 0.34. For FTRSQAV, the amyloid nucleation score result is “inactive”.

The substance LYKKICKALSYIMDLTRVLP came in with an amyloid nucleation score of -1.54 ± 2.1. For the substance AGCVPMGEGLGTLESNYSKY, the amyloid nucleation score amounted to 0.637 ± 0.52. LSMSTFVKVCDVNAYPKGTA displayed an amyloid nucleation score of 0.358 ± 1.1. RDDDPYVQDRPLRDFVFKKY returned an amyloid nucleation score of -0.472 ± 0.35. Consider LNCRGVLDRTKSRVSHNNES, for which the amyloid nucleation score was 3.38 ± 0.18.

Take LRSRR: the amyloid nucleation score turned out to be 1.41 ± 0.76.

As to MEPLVTQCRHKG, the amyloid nucleation score is -1.31 ± 1.1. WGIVVNQYVVRSVRLKLQDR yielded an amyloid nucleation score of 2.8 ± 0.13. In the case of NLTGGCLGVRWDMVECAWYY, the amyloid nucleation score is 3.77 ± 0.068. For the substance QGCMATYSGVGDACWGVRVS, the amyloid nucleation score was 0.678 ± 0.56. The result for SSGFSTMYIK reads -0.892 ± 2.1. In turn, SIIIGMRLCHHVRSAYTNEL gave an amyloid nucleation score of 3.21 ± 0.18. GCRTLHGGAVDKLYTWCHLA gave an amyloid nucleation score of 0.504 ± 0.92.

IGTGCSDILRIWRECVNLRG had an amyloid nucleation score of 1.5 ± 0.56. The substance GSMMWSMTADKLKFAGSVVC displayed an amyloid nucleation score of 0.889 ± 0.54. With TDIIFIVRYSVVLVSLCSKC, the amyloid nucleation score is -0.343 ± 0.69.

For the substance GCTSGGLCIGPPRSV, the amyloid nucleation score came out at 0.906 ± 1.

DRGDLAFSFSGQRTGGKEPR gave an amyloid nucleation score of -0.219 ± 0.51. As for CRSSGADSRLLNIVKPCTLP, the amyloid nucleation score is -0.616 ± 0.33. Consider NCCGSLETSSVSVVYLMWGW, for which the amyloid nucleation score is 5.917 ± 0.05.

Substance VVFRGIVCCCQ came in with an amyloid nucleation score of 0.3 ± 0.58. The substance STRYRPLNWYLTKPPVRFKM had an amyloid nucleation score of -0.037 ± 0.56. The result for CVFYASTYVIPYNCENNFTI reads 0.952 ± 0.26; that for WPWHEHEQKWDKLCMLSWKR, “inactive”; that for QMKVISLVRHE, “inactive”. QWGRMPMFLIDRTGGWASMG yielded an amyloid nucleation score of 0.409 ± 0.32. VSSTYNSFRFVSLGKFNHHC showed an amyloid nucleation score of 2.71 ± 0.17. In the case of GCHLVWFGVVYRQQWSFGVD, the amyloid nucleation score is 0.563 ± 0.57. In turn, LNDNLGSMFSL showed an amyloid nucleation score of -0.772 ± 0.64. Turning to APMYDDLDATMVELEGP, the amyloid nucleation score was determined as 0.254 ± 1.2. With LLVMVVMGCCA, the amyloid nucleation score came to 0.163 ± 0.83. In the case of INYTTWHYASCFRFT, the amyloid nucleation score was 2.82 ± 0.14. The result for AFSYRGGVMRSSFEMLTYVS reads -0.906 ± 0.61; that for LNCNV, 1.24 ± 0.76; that for GDSRTLGLLCFYMKVG, -0.352 ± 0.41. Regarding KCIDMVFKY, the amyloid nucleation score was determined as 0.143 ± 0.39. With SIYRYLCGRFDCLWILPCEH, the amyloid nucleation score was found to be 1.29 ± 0.84. SLGCYCRVKIVWVCILGYTA: the amyloid nucleation score is 0.526 ± 0.27. To KKAIPACHVVSFTMRLSFLD belongs 0.225 ± 0.63; to IRKHLDPGPSYRSSYLRGW, “inactive”; to AKSQYMVVVYMPIYLWQCYI, 4.01 ± 0.14. In turn, LYCMGVLPSLLAISMVWVRG had an amyloid nucleation score of 2.94 ± 0.2.

The substance YSYAGSLMAWSRKVHMHTEV returned an amyloid nucleation score of -0.19 ± 0.57. In turn, CCVGWCFPACLLFST gave an amyloid nucleation score of 7.42 ± 0.079. In turn, QFFLNTRLSLFALYL gave an amyloid nucleation score of 5.35 ± 0.059. The result for YGVNLPALLFKYAISGSLVG reads 1.03 ± 0.53. As for LTFTLTDPDSHDANDKWPLH, the amyloid nucleation score was -0.208 ± 0.66. For LNQRWCCFTISALR, the amyloid nucleation score came to 7.702 ± 0.076.

QMGIMFALILQMYFSKFQDW registered an amyloid nucleation score of -0.182 ± 0.21.

INELNTLLGI: the amyloid nucleation score was found to be 0.498 ± 0.97. LTPRRYIWTYLSWGDAGLEL came in with an amyloid nucleation score of 1.02 ± 0.9. Substance MGTDRMCHS showed an amyloid nucleation score of 0.328 ± 0.97. Substance LIAPGFPERCRQGRMYEF showed an amyloid nucleation score of -0.234 ± 1.2.

For VVTDF, the amyloid nucleation score result is “inactive”. To RLGPYSATWFVGKGKREGGV belongs 0.571 ± 0.55; to RRGVV, 0.659 ± 0.93; to GRPICYKTHFSSLYVSEVDR, -1.19 ± 1.4.

As to FGCNELNR, the amyloid nucleation score worked out at 0.826 ± 0.5. As to VDWSVAWHWLLSSD, the amyloid nucleation score worked out at 0.484 ± 0.49. Substance CNFSQYMRVHHTSYLEPTDH returned an amyloid nucleation score of 3.22 ± 0.12.

Take VPSLSPFGRKMFHIRSL: the amyloid nucleation score entry was “inactive”. VGFGQSHGVFRCGVMRLRRG had an amyloid nucleation score of 0.192 ± 1.1. NVRDLSMISLGAEVWGRIAV yielded an amyloid nucleation score of 0.619 ± 0.81. The result for RTYSFC reads -0.41 ± 0.93; that for LFFTGVHRKF, 4.28 ± 0.064. To FMASTRRFPLSLMRRAHVYL belongs -0.182 ± 1.3; to PKFCWAWSYALMGNKNLKSC, -0.715 ± 0.34.

As to LISCIRFYCSVLGVDCTDSV, the amyloid nucleation score was 0.235 ± 0.39. As for YGHCFDFGVRTVLFNGFSLI, the amyloid nucleation score came out at 1.29 ± 0.84. Take WKQMVLGVWCESLELL: the amyloid nucleation score is -0.548 ± 0.56.

For TILGVITKIVQTLLWMPWVA, the amyloid nucleation score was -1.37 ± 0.9.

Consider NSILVNVYDKTFRVGLRGRN, for which the amyloid nucleation score result was “inactive”.

PATELLYNVCGGY displayed an amyloid nucleation score of 0.044 ± 0.38. Take KMLSSQLITRPFGGPKRHKP: the amyloid nucleation score is 0.753 ± 0.65.

With CLFLLNVGLSLLIGLPRYMW, the amyloid nucleation score came to 0.552 ± 0.91. For the substance ITAFKRAKRSAGCW, the amyloid nucleation score is -0.034 ± 0.25. IRVTAEICYLLKHTVMGRMR: the amyloid nucleation score is 0.523 ± 0.34.

Consider GKLSCYPCTGCL, for which the amyloid nucleation score was -0.109 ± 1.4.

Substance GITGSWINFRNCLTR returned an amyloid nucleation score of 0.774 ± 0.6.

In the case of RYSQTKDLKVLLQHFFIYKF, the amyloid nucleation score is -1.23 ± 1.7.

These data come from the supplement of paper PMC12042874.
